According to publication doi:10.1101/2020.01.26.920348:

Key:
Test in all cases: FRET or BRET
[1] = molecular target: YFP-preIQ3-IQD-PCRDC (not stated (human or rat cDNA cloned) | human)
[2] = molecular target: YFP-preIQ3-IQD-PCRDS (not stated (human or rat cDNA cloned) | mouse)
[3] = molecular target: YFP-preIQ3-IQD-PCRDD (not stated (human or rat cDNA cloned)) (UniProt Q01668)
Sequence of UniProt Q01668 (Q01668 whole entry): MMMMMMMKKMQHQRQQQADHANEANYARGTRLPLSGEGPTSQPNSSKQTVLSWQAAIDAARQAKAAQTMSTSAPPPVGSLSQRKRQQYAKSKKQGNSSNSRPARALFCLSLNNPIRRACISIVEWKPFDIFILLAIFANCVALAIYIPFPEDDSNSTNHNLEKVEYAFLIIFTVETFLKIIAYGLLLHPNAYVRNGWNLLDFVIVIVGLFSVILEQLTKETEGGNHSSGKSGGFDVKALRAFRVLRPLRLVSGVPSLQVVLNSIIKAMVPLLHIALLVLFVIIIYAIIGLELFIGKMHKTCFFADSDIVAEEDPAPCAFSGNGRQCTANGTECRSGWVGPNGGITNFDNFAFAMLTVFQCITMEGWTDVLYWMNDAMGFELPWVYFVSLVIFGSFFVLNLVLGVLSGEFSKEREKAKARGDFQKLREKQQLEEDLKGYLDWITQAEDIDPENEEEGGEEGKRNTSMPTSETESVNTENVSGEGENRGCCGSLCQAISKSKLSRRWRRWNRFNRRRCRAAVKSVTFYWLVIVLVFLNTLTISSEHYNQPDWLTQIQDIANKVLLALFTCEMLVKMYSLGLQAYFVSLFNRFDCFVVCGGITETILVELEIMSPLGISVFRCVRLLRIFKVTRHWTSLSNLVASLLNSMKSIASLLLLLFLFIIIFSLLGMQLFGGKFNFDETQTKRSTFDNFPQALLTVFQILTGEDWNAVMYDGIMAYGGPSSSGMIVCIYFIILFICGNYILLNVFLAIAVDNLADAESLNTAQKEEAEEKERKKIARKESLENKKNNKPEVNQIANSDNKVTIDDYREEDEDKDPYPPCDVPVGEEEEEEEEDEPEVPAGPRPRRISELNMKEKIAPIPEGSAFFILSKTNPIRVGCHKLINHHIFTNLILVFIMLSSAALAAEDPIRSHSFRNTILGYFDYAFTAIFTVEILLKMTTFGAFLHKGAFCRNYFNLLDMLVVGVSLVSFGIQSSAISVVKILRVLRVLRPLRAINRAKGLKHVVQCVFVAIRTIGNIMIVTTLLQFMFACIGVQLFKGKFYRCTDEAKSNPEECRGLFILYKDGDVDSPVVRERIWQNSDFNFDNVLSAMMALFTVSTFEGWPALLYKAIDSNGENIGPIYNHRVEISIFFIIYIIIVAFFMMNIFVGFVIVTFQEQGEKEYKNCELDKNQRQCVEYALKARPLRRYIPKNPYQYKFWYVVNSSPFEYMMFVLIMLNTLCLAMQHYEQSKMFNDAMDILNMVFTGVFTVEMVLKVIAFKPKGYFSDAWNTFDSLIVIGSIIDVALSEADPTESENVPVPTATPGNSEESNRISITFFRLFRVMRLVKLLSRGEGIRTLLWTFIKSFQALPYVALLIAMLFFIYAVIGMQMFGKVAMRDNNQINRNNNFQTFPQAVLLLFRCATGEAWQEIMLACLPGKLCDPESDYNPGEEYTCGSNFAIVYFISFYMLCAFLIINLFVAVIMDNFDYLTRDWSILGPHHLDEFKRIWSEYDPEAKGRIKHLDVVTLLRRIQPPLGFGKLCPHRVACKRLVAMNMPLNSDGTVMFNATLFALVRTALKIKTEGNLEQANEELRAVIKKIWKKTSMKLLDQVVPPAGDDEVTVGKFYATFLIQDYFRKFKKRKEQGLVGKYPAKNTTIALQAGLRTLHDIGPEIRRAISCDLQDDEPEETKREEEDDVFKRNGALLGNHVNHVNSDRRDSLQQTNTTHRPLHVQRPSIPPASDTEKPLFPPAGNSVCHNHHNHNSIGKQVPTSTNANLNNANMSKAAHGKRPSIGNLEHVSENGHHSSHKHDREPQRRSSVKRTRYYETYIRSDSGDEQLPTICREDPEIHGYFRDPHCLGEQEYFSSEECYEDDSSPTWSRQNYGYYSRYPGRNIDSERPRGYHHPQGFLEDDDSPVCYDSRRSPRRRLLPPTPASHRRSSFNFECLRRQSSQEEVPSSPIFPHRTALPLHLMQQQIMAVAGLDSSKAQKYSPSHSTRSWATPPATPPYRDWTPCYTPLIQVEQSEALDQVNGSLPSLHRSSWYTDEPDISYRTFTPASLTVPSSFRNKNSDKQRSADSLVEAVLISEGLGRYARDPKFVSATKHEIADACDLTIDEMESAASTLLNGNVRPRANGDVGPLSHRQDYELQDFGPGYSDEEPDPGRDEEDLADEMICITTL

CFP-DCRDC (distal C-terminal regulatory domain of CaV1.2) (from UniProt Q13936 1-2221) (domain or fragment)
relative Kd (normalised to Kd of PD/DF) [1]: 11.2

CFP-DCRDS (distal C-terminal regulatory domain of CaV1.1) (from UniProt Q02789 1-1852) (domain or fragment)
relative Kd (normalised to Kd of PD/DF) [2]: 18.7

PCRDC-DCRDF peptide (PCRD of CaV1.2 joined to DCRD of CaV1.4)
relative Kd (normalised to Kd of PD/DF) [3]: 2.3
